Experimental data: patent publication US11607466B2, “Tumor and immune cell imaging based on PD-L1 expression” (The Johns Hopkins University, priority 2016, dated 2023)

Legend:
[1] = target: T1, PD-L1 in A549-iPDL1 cells (Homo sapiens, UniProt Q9NZQ7); experiment: Binding studies in doxycycline-inducible A549-iPDL1 cells; type: cell-based; conditions: 60 nM mAb
T1 construct: expressed in transfected cells; host or cells: A549 NSCLC cells, lentiviral pINDUCER20, G418-selected, doxycycline-induced
T1 sequence (Q9NZQ7 19-290): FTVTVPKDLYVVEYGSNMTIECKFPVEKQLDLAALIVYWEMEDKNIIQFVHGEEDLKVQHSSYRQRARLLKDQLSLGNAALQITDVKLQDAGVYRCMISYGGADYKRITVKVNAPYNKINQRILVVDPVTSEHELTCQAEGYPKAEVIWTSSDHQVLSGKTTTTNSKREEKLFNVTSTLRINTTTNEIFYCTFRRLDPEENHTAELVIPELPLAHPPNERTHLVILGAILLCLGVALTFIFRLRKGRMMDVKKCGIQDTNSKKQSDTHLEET
Excerpt: To do so, an A549 NSCLC cell line with doxycycline-inducible PD-L1 expression (A549-iPD-L1) was generated. A549 is a Kras G12S lung adenocarcinoma cell line that expresses low PD-L1 at baseline.

PD-L1 in MDAMB231 tumors [2] = target: T2, PD-L1 in MDAMB231 tumors (Homo sapiens, UniProt Q9NZQ7); experiment: Tumor PD-L1 engagement by PD-L1 mAbs measured with [64Cu]WL12, MDAMB231 xenografts; type: in vivo
T2 construct: MDAMB231 breast cancer cells, which naturally express PD-L1; endogenous in cells; host or cells: MDAMB231 (ATCC); as xenografts in NSG mice for the in vivo units
T2 sequence (Q9NZQ7 19-290): as above
Procedure: To evaluate the effect of dose on tumor PD-L1 occupancy at the tumor, mice bearing MDAMB231 tumors were injected with escalating doses of AtzMab from 0.009 to 24 mg/kg body weight.

PD-L1 in MDAMB231 tumors [3] = target: T2, PD-L1 in MDAMB231 tumors; experiment: as above; type: in vivo; conditions: AtzMab 20 mg/kg, AveMab 10 mg/kg, DurMab 10 mg/kg, 24 h prior to tracer

**Q.** Which results are given for “AtzMab: therapeutic PD-L1 antibody Atezolizumab”?
**A.** decrease of [64Cu]WL12 binding to doxycycline-treated A549-iPDL1 cells [1]: 65%; [64Cu]WL12 uptake compared to untreated controls, PET (PD-L1 in MDAMB231 tumors [2]; AtzMab 0.06 mg/kg): no difference; [64Cu]WL12 tumor uptake at 120 h compared to 24 h (PD-L1 in MDAMB231 tumors [2]; AtzMab 0.6 mg/kg): significant increase; target engagement at the tumor (PD-L1 in MDAMB231 tumors [2]; AtzMab 3.2 mg/kg): ~100%; [64Cu]WL12 tumor uptake at 120 h compared to 24 h (PD-L1 in MDAMB231 tumors [2]; AtzMab 10 or 20 mg/kg): no significant temporal difference; PD-L1 occupancy at 24 and 120 h (PD-L1 in MDAMB231 tumors [2]; atezolizumab 1 mg/Kg): increased accumulation of [^64Cu]WL12 can be seen at 120 h but not at 24 h; PD-L1 occupancy at 24 and 120 h (PD-L1 in MDAMB231 tumors [2]; atezolizumab 10 mg/Kg): complete blockade of PD-L1; less uptake of [64Cu]WL12 in tumors vs saline controls (PD-L1 in MDAMB231 tumors [2]; mAb 24 h prior, 120 min after tracer injection, ex vivo): approximately 60%; [64Cu]WL12 uptake in MDAMB231 xenografts (PD-L1 in MDAMB231 tumors [3]): significantly reduced
